The target in assay [1] is T1, mouse B7-H3 (Mus musculus, UniProt Q8VE98).
T1 construct: purchased Sino biological Inc
T1 sequence (Q8VE98 29-316): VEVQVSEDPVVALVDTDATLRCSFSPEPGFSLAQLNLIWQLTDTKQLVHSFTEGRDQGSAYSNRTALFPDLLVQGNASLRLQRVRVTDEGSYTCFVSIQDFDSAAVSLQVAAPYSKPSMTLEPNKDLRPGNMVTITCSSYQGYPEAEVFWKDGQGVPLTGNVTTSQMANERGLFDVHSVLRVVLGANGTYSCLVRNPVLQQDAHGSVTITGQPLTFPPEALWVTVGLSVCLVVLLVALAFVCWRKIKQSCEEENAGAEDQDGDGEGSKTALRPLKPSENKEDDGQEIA
Description: Biacore (SPR) binding kinetics, mouse B7-H3. The note with it: analyte Mouse B7-H3, antibody as immobilized ligand. As to the method: (§1) The binding affinity of the purified anti-B7-H3 monoclonal antibodies was determined by BLI-based OCTET or SPR-based Biacore. Further the binding kinetics of the antibodies binding to human, cynomolgus monkey and mouse B7-H3 antigen are shown in Table 37.
(§2) A Biacore 8K (GE Life science) instrument was used to measure the binding kinetics about several B7-H3 variants (analyte) binding to various mAbs (ligands). Antibodies were captured onto the immobilized anti-human Fc antibody (GE Life science). Anti-Fc antibodies were immobilized to approximately 7,000 RU on CM5 sensor chip using a standard amine coupling method on both active cell and reference cell. For binding kinetic measurements, the HBS-EP+ was used for running buffer (10 mM Hepes, pH7.4, 150 mM NaCl, 3 mM EDTA, 0.05% polysorbate20). Anti-B7-H3 antibodies were diluted to 0.5 ug/mL in running buffer and injected for 110 s on active cells only. After capturing ligand, various B7-H3 antigens were analyzed for 120 s and the dissociation was monitored for 600 s at a flow rate of 30 ul/min. […] Kinetic information was calculated by fitting data to a 1:1 binding model using Biacore Insight Evaluation software (GE Life Science) to determine ka (association constant), kd (dissociation constant), and KD (equilibrium dissociation constant).
A general note: In SPR one partner is held on a chip, and binding of the other changes the refractive index at the surface.

Assay [2] addresses T2, human 4Ig B7-H3 (Homo sapiens, UniProt Q5ZPR3).
T2 construct: purchased Y-Biologics Inc
T2 sequence (Q5ZPR3 29-534): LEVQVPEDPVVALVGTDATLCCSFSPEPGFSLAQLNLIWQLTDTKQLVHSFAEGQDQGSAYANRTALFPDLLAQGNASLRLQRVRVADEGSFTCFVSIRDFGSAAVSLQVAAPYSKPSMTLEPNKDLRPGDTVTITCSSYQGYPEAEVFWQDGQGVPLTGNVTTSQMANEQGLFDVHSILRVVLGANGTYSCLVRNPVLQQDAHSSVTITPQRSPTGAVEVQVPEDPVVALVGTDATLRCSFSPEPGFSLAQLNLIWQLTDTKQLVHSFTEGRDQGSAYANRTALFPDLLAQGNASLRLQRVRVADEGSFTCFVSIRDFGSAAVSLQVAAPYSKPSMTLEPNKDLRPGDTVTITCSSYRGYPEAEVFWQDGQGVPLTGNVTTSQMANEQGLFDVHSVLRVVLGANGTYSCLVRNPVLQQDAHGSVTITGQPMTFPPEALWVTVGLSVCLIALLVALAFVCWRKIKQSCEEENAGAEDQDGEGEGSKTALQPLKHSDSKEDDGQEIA
Put plainly: Biacore (SPR) binding kinetics, human 4Ig B7-H3. The note with it: analyte Human 4IgB7-H3, antibody as immobilized ligand. As to the method: as §1, §2

Assay [3] relates to cynomolgus monkey B7-H3. Put plainly: Biacore (SPR) binding kinetics, cynomolgus monkey B7-H3. The note with it: analyte Cyno B7-H3, antibody as immobilized ligand. As to the method: as §1, §2
The target in assay [4] is T3, human 2Ig B7-H3 (Homo sapiens, UniProt Q5ZPR3).
T3 construct: purchased Acrobiosystems
T3 sequence (Q5ZPR3 29-316 isoform Q5ZPR3-2 limits assumed): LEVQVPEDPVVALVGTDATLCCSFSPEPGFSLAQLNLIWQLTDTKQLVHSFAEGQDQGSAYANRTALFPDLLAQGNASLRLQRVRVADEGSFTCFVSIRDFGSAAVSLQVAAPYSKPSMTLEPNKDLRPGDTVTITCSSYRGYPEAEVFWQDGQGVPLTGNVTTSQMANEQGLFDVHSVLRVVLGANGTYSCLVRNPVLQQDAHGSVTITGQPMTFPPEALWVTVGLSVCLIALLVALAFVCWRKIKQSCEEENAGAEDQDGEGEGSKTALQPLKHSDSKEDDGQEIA
Description: Biacore (SPR) binding kinetics, human 2Ig B7-H3. The conditions noted are these: analyte Human 2IgB7-H3, antibody as immobilized ligand. As to the method:
as §1, §2

Assay [5] has as its target T4, B7-H3 (Homo sapiens, UniProt Q5ZPR3).
T4 sequence (Q5ZPR3 29-534): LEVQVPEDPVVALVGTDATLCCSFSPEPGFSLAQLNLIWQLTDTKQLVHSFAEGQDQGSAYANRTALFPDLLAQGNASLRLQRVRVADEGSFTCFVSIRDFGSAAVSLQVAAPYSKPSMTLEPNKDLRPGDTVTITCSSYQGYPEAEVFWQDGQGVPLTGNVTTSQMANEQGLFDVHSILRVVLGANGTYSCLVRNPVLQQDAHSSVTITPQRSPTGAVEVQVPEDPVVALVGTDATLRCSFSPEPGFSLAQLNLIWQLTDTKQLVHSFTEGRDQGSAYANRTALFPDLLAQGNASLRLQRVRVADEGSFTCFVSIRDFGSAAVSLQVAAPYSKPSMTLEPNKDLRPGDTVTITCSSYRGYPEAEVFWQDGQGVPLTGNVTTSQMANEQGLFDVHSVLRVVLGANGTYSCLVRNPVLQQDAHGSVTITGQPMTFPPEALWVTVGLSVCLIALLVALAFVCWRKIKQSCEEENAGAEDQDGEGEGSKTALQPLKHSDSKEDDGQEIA
The conditions noted are these: Table 1, development state of B7-H3 ADC; cited from earlier work.

B1: AB2 (antibody, V domains shown)
VH: QVQLVESGAEVKKPGASVKLSCKASGYTFSSYWMHWVRQAPGQRLEWMGEINPGNGHTNYNEKFKSRVTITVDKSASTAYMELSSLRSEDTAVYYCVADPRRPKVPTALFVYWGQGTLVTVSS
VL: DIQMTQSPSSVSASVGDRVTISCRASQGIGTWLAWYQQKPGKAPRLLIYAASSLDSGVPSRFSASGSGTDFTLTISSLQPEDFATYYCQQAINFPITFGQGTRLEIK
As to B1, the “Ka” value in assay [1] was 408000 M⁻¹ s⁻¹; in assay [2] it was 446000 M⁻¹ s⁻¹; in assay [3], 481000 M⁻¹ s⁻¹; in assay [4], 206000 M⁻¹ s⁻¹. In addition, the “Kd” value in assay [1] amounted to 0.0193 s⁻¹; in assay [2], 0.000199 s⁻¹; in assay [3] it was 0.000442 s⁻¹; in assay [4], 0.00515 s⁻¹.

B2: Enoblituzumab (antibody, chains of the INN, looked up)
heavy: EVQLVESGGGLVQPGGSLRLSCAASGFTFSSFGMHWVRQAPGKGLEWVAYISSDSSAIYYADTVKGRFTISRDNAKNSLYLQMNSLRDEDTAVYYCGRGRENIYYGSRLDYWGQGTTVTVSSASTKGPSVFPLAPSSKSTSGGTAALGCLVKDYFPEPVTVSWNSGALTSGVHTFPAVLQSSGLYSLSSVVTVPSSSLGTQTYICNVNHKPSNTKVDKRVEPKSCDKTHTCPPCPAPELVGGPSVFLLPPKPKDTLMISRTPEVTCVVVDVSHEDPEVKFNWYVDGVEVHNAKTKPPEEQYNSTLRVVSVLTVLHQDWLNGKEYKCKVSNKALPAPIEKTISKAKGQPREPQVYTLPPSREEMTKNQVSLTCLVKGFYPSDIAVEWESNGQPENNYKTTPLVLDSDGSFFLYSKLTVDKSRWQQGNVFSCSVMHEALHNHYTQKSLSLSPG
light: DIQLTQSPSFLSASVGDRVTITCKASQNVDTNVAWYQQKPGKAPKALIYSASYRYSGVPSRFSGSGSGTDFTLTISSLQPEDFATYYCQQYNNYPFTFGQGTKLEIKRTVAAPSVFIFPPSDEQLKSGTASVVCLLNNFYPREAKVQWKVDNALQSGNSQESVTEQDSKDSTYSLSSTLTLSKADYEKHKVYACEVTHQGLSSPVTKSFNRGEC
B2: the Kd in assay [5] is 7 nM.
